In patent US20160237160A1 (Bayer, published 2016):

What was measured:
Test in all cases: ELISA, Fc fusion protein coated at 1 µg/ml, TPP-2090 at 75 nM, Amplex Red;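 note: binding reported as ELISA signal intensity in Rfu against a panel of TNF receptor superfamily members presented as Fc fusion proteins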
[1] = biological target: T1, HVEM (TNFRSF14) Fc fusion protein (Human, UniProt Q92956 39-202)
T1 construct: extracellular domain; bought
T1 sequence (looked up): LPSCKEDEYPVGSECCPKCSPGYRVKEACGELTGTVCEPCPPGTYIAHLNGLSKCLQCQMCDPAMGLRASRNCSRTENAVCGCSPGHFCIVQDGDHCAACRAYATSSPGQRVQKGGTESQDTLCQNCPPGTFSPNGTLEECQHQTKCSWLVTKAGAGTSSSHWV
From the text: (§1) Shown is the result of an ELISA: Y is “ELISA signal intensity [Rfu]”; X are “TNF receptor superfamily proteins tested (Fc-fusion proteins)”: 1 is “TWEAKR”; 2 is “TWEAKR”; 3 is “Apo-3”; 4 is “Trail-R1”; 5 is “Trail-R2”; 6 is “CD385”; 7 is “CD95”; 8 is “Rank”; 9 is “TNF-R1”; 10 is “TNF-R2”; 11 is “BAFF-R”; 12 is “DcR3”; 13 is “BCMA”; 14 is “TACI”; 15 is “OX40”; 16 is “CD30”; 17 is “CD27”; 18 is “CD40”; 19 is “Osteoprotegerin”; 20 is “EDAR”; 21 is “GITR”; 22 is “HVEM”; 23 is “NGF R”; 24 is “Trail R3”; 25 is “Lymphotioxin B R”; 26 is “Trail R4”; 27 is “EDA2R”; 28 is “TROY”; 29 is “RELT”; 30 is “4-1BB”.
(§2) To collect dose-response data a serial 3fold dilution of biotinylated IgG starting with a concentration of 2 μM was used as soluble binding partner. Detection was done with anti-hIgG1-HRP and Amplex Red.

[2] = biological target: T2, CD27 (TNFRSF7) Fc fusion protein (Human, UniProt P26842 20-191)
T2 construct: extracellular domain; bought
T2 sequence (P26842 20-191): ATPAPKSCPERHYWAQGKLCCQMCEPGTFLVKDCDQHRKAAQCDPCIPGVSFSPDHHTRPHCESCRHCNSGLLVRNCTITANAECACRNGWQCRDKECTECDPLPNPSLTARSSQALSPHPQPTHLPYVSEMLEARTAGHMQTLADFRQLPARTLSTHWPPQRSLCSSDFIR
From the text: as §1, §2

[3] = biological target: T3, Lymphotioxin β R Fc fusion protein (Human, UniProt P36941 31-227)
T3 construct: extracellular domain; bought; also called Lymphotioxin B R
T3 sequence (P36941 31-227): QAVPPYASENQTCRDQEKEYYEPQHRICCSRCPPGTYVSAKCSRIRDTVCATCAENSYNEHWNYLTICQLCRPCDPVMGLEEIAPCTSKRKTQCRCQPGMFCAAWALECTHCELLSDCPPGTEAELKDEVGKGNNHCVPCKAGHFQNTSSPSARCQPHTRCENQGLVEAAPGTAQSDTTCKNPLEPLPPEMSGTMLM
From the text: as §1, §2

EDAR Fc fusion protein = biological target: T4, EDAR Fc fusion protein (Human, UniProt Q9UNE0 27-187)
T4 construct: extracellular domain; bought
T4 sequence (looked up): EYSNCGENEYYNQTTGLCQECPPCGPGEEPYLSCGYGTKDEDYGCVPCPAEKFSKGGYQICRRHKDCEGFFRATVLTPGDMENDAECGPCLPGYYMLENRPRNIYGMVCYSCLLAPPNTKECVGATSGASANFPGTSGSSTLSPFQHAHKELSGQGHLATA
From the text: as §1, §2

[4] = biological target: T5, GITR (TNFRSF18) Fc fusion protein (Human, UniProt Q9Y5U5 26-162)
T5 construct: extracellular domain; bought
T5 sequence (looked up): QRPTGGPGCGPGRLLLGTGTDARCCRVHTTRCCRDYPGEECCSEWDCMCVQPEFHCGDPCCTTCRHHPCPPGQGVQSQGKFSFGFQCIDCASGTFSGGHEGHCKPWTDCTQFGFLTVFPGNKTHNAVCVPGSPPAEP
From the text: as §1, §2

[5] = biological target: T6, DcR3 (TNFRSF6B) Fc fusion protein (Human, UniProt O95407 30-300)
T6 construct: extracellular domain; bought
T6 sequence (looked up): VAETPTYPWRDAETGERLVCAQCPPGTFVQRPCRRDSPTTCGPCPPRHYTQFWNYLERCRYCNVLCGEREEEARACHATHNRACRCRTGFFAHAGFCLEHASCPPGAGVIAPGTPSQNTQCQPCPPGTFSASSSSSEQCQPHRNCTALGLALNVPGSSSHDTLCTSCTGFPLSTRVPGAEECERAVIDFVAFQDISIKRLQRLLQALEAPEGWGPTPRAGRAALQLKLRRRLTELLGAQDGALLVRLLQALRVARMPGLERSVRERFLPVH
From the text: as §1, §2

[6] = biological target: T7, NGF R (TNFRSF16) Fc fusion protein (Human, UniProt P08138 29-250)
T7 construct: extracellular domain; bought
T7 sequence (looked up): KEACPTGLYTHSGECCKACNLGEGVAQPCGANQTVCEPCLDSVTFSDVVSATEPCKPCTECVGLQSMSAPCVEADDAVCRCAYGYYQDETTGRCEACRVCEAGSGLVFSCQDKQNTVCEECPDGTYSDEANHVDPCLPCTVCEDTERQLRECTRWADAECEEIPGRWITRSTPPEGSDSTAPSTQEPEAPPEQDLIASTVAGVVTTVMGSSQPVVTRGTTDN
From the text: as §1, §2

[7] = biological target: T8, EDA2R (TNFRSF27) Fc fusion protein (Human, UniProt Q9HAV5 1-138)
T8 construct: extracellular domain; bought
T8 sequence (looked up): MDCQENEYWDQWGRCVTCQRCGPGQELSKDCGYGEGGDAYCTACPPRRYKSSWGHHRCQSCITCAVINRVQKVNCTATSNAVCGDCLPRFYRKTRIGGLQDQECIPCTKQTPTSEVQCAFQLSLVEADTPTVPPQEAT
From the text: as §1, §2

[8] = biological target: T9, CD30 (TNFRSF8) Fc fusion protein (Human, UniProt P28908 19-385)
T9 construct: extracellular domain; bought
T9 sequence (looked up): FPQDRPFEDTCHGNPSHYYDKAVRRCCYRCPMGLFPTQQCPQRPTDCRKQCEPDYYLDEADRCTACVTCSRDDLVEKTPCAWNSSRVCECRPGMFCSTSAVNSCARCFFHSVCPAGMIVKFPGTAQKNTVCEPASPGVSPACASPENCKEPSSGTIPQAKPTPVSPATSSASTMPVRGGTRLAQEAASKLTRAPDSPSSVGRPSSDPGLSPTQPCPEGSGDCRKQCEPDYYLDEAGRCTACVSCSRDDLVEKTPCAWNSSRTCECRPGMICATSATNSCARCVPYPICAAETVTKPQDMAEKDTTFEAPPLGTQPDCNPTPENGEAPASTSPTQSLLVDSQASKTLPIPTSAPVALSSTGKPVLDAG
From the text: as §1, §2

[9] = biological target: T10, Trail-R2 (TNFRSF10B) Fc fusion protein (Human, UniProt O14763 56-210)
T10 construct: extracellular domain; bought
From the text: as §1, §2

[10] = biological target: T11, Osteoprotegerin (TNFRSF11B) Fc fusion protein (Human, UniProt O00300 22-194, limits assumed)
T11 construct: extracellular domain; bought
T11 sequence (looked up): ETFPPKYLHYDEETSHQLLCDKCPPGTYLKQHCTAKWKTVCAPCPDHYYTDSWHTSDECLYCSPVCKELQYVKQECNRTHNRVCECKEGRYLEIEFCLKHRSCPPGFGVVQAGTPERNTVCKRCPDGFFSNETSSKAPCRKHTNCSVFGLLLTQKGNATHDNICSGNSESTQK
From the text: as §1, §2

binding result [1]: no binding (tested: 75 nM)
binding result [2]: no binding (tested: 75 nM)
binding result [3]: no binding (tested: 75 nM)
binding result (EDAR Fc fusion protein): no binding (tested: 75 nM)
binding result [4]: no binding (tested: 75 nM)
binding result [5]: no binding (tested: 75 nM)
binding result [6]: no binding (tested: 75 nM)
binding result [7]: no binding (tested: 75 nM)
binding result [8]: no binding (tested: 75 nM)
binding result [9]: no binding (tested: 75 nM)
binding result [10]: no binding (tested: 75 nM)
B1: TPP-2090 (antibody, human IgG1, kappa, V domains shown)
VH: EVQLLESGGGLVQPGGSLRLSCAASGFTFSPYPMIWVRQAPGKGLEWVSYISPSGGSTHYADSVKGRFTISRDNSKNTLYLQMNSLRAEDTAVYYCARGGDTYFDYFDYWGQGTLVTVSS
VL: DIQMTQSPSSLSASVGDRVTITCRASQSISGYLNWYQQKPGKAPKLLIYQASSLQSGVPSRFSGSGSGTDFTLTISSLQPEDFATYYCQQSYTSPFITFGQGTKVEIKR
notes: Human IgG1
